Like-named read-outs stand apart in the source and are kept apart here. Blank lines part the entries; values can stand above or below the binder they belong to. Ends that are not written are not given here.
T1: TROP2 (human, UniProt P09758 27-274, limits assumed, biotinylated (site not stated))
T1 construct: also called TROP2-biotin; tumor-associated calcium signal transducer 2
T1 sequence (looked up): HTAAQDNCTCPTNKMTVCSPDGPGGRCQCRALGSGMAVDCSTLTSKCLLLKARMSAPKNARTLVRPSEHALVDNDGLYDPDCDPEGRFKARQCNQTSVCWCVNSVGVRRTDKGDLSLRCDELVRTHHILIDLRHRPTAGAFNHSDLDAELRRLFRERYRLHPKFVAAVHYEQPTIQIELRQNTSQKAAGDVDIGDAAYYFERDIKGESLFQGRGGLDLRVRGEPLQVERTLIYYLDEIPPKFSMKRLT

T2: human TROP2-biotin (human, UniProt P09758 27-274, limits assumed, biotinylated (site not stated))
T2 construct: also called hTROP2-Biotin; Biotinylated TROP2
T2 sequence (looked up): T1 sequence (looked up)

T3: Cyno CD3 (Antigen was biotinylated for capture on the plate (per card); site of biotin and any vendor tag not stated in the passages seen.)
T3 construct: also called cynomolgus CD3
T3 chain: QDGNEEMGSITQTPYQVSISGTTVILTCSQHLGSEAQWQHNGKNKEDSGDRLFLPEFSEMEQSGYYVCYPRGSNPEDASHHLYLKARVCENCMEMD

B1: Peptide-4 (peptide)
peptide: DWCWYSPDNDGLCD
modifications: cysteine pairing not given here; also: biotinylated when captured in binding ELISA
notes: also called 1446
B2: Peptide-5 (peptide)
peptide: SECLVDLQSDPCYW
modifications: cysteine pairing not given here; also: biotinylated when captured in binding ELISA
notes: also called 1454
B3: TCE-30 (bispecific antibody)
light: DIQLTQSPSSLSASVGDRVSITCKASQDVSIAVAWYQQKPGKAPKLLIYSASYRYTGVPDRFSGSGSGTDFTLTISSLQPEDFAVYYCQQHYITPLTFGAGTKVEIKRTVAAPSVFIFPPSDEQLKSGTASVVCLLNNFYPREAKVQWKVDNALQSGNSQESVTEQDSKDSTYSLSSTLTLSKADYEKHKVYACEVTHQGLSSPVTKSFNRGEC
heavy: not shown
notes: anti-CD3 scFv H101A; anti-TROP2 Fab F108A
B4: TCE-29 (bispecific antibody)
light: B3 light
heavy: not shown
notes: anti-CD3 scFv wt; anti-TROP2 Fab F108A
B5: TCE-36 (bispecific antibody)
light chain (anti-TROP2 LC wt): B3 light
heavy chain (anti-CD3 scFv H101A fused to anti-TROP2 D109A Fab HC): not shown
notes: not in the list MOLECULES; also called TCE-36 (anti-CD3 scFv H101A; anti-TROP2 (D109A) HC)
B6: TCE-32 (bispecific antibody)
light: B3 light
heavy: not shown
notes: anti-CD3 scFv F240A; anti-TROP2 Fab F108A
B7: TCE-31 (anti-CD3 scFv F104A; anti-TROP2 (F108A) HC) (bispecific antibody)
light: B3 light
heavy: not shown
notes: scFv-Fab; the entry already carries the mutations
B8: TCE-26 (anti-CD3 scFv F240A; anti-TROP2 HC wt) (bispecific antibody)
light: B3 light
heavy: not shown
notes: scFv-Fab; the entry already carries the mutation; also called 3098
B9: TCE-34 (bispecific antibody)
light: B3 light
heavy: not shown
notes: anti-CD3 scFv N30Q, I109V, G172A, V231A; anti-TROP2 Fab F108A
B10: TCE-37 (bispecific antibody)
light: B3 light
heavy: not shown
notes: anti-CD3 scFv F104A; anti-TROP2 Fab D109A
B11: TCE-31 (bispecific antibody)
light: B3 light
heavy: not shown
notes: anti-CD3 scFv F104A; anti-TROP2 Fab F108A
B12: TCE-34 (anti-CD3 scFv, several mutations; anti-TROP2 (F108A) HC) (bispecific antibody)
light: B3 light
heavy: not shown
notes: as for B7
B13: TCE-33 (anti-CD3 scFv, several mutations; anti-TROP2 (F108A) HC) (bispecific antibody)
light: B3 light
heavy: EVQLVESGGGLVQPGGSLKLSCAASGFTFNKYAMNWVRQASGKGLEWVGRIRSKYNNYATYYADSVKDRFTISRDDSKNTAYLQMNSLKTEDTAVYYCVRHGNFGNSYISYWAYWGQGTLVTVSSGGGGSGGGGSGGGGSQTVVTQEPSFSVSPGGTVTLTCRSSTGAVTSGNYANWVQQTPGQAPRGLIGGTKFLAPGVPDRFSGSILGNKAALTITGAQADDESDYYCVLWYSNRWVFGGGTKLTVLGGGGSQVQLQQSGSELKKPGASVKVSCKASGYTFTNYGMNWVKQAPGQGLKWMGWINTYTGEPTYTDDFKGRFAFSLDTSVSTAYLQISSLKADDTAVYFCARGGFGSSYWYADVWGQGSLVTVSSASTKGPSVFPLAPSSKSTSGGTAALGCLVKDYFPEPVTVSWNSGALTSGVHTFPAVLQSSGLYSLSSVVTVPSSSLGTQTYICNVNHKPSNTKVDKKVEPKSC
notes: as for B7
B14: TCE-38 (bispecific antibody)
light chain (anti-TROP2 LC wt): B3 light
heavy chain (anti-CD3 scFv F240A fused to anti-TROP2 D109A Fab HC): not shown
notes: not in the list MOLECULES; also called anti-TROP2 (D109A) HC)
B15: TCE-32 (anti-CD3 scFv F240A; anti-TROP2 (F108A) HC) (bispecific antibody)
light: B3 light
heavy: not shown
notes: as for B7

What was measured:
TCE-6 = biological target: T4, TCE-6; assay: competition ELISA, peptide titrated vs TCE binding to captured CD3
T4 construct: anti-CD3 scFv N103A; anti-TROP2 Fab wt; also called 3078

TCE-4 = biological target: T5, TCE-4; assay: as above
T5 construct: anti-CD3 scFv H101A; anti-TROP2 Fab wt; also called 3076

TCE-15 = biological target: T6, TCE-15; assay: as above
T6 construct: anti-CD3 scFv W112A; anti-TROP2 Fab wt; also called 3087

TCE-1 = biological target: T7, TCE-1; assay: competition ELISA: peptide titrated and pre-incubated with a constant concentration of TCE-1; TCE-1 bound to plate-captured biotinylated CD3 is detected (blocked ligand: CD3)
T7 construct: anti-CD3 scFv wt fused to anti-TROP2 Fab HC wt

TCE-32 = biological target: B6; assay: competition ELISA, peptide titrated vs TCE binding to captured CD3
TCE-30 = biological target: B3; assay: as above
TCE-3 = biological target: T8, TCE-3; assay: as above
T8 construct: anti-CD3 scFv R100A; anti-TROP2 Fab wt; also called 3075

TROP2 [1] = biological target: T1, TROP2; assay: ELISA, biotinylated TROP2 captured on neutravidin coated plates, HRP secondary antibody, OD 450 nm
TROP2 [2] = biological target: T1, TROP2; assay: as above; remark: listed apart in the source
TROP2 [3] = biological target: T1, TROP2; assay: as above; remark: listed apart in the source
human CD3ε-biotin [4] = biological target: T9, human CD3ε-biotin (human, UniProt P07766 23-126, limits assumed, biotinylated (site not stated)); assay: ELISA, biotinylated CD3ε captured on neutravidin plate, TCE titrated
T9 construct: also called CD3E-bio; CD3E-biotin

human TROP2-biotin [5] = biological target: T2, human TROP2-biotin; assay: ELISA, biotinylated TROP2 captured on neutravidin plate, TCE titrated; table row head prints EC50 without a unit, unit taken from the axis Log [TCE nM]
CD3ε [6] = biological target: T10, CD3ε (human, UniProt P07766 23-126, limits assumed, biotinylated (site not stated)); assay: ELISA, biotinylated CD3 captured on neutravidin coated plates, HRP secondary antibody, OD 450 nm
T10 construct: also called CD3-biotin; CD3E

TROP2 [7] = biological target: T1, TROP2; assay: ELISA, biotinylated TROP2 captured on neutravidin coated plates, HRP secondary antibody, OD 450 nm; remark: listed apart in the source
human CD3ε-biotin [8] = biological target: T9, human CD3ε-biotin; assay: Human CD3 binding ELISA, TCE titrated
Cyno CD3 = biological target: T3, Cyno CD3; assay: Cyno CD3 binding ELISA, TCE titrated
human TROP2-biotin [9] = biological target: T2, human TROP2-biotin; assay: ELISA, biotinylated TROP2 captured on neutravidin plate, TCE titrated
human CD3ε-biotin [10] = biological target: T9, human CD3ε-biotin; assay: ELISA, biotinylated CD3ε on neutravidin plates
human CD3ε-biotin [11] = biological target: T9, human CD3ε-biotin; assay: BLI (Octet), summary table
CD3ε [12] = biological target: T10, CD3ε; assay: ELISA, biotinylated CD3 captured on neutravidin coated plates, HRP secondary antibody, OD 450 nm; remark: listed apart in the source
CD3ε [13] = biological target: T10, CD3ε; assay: as above; remark: listed apart in the source
human CD3ε-biotin [14] = biological target: T9, human CD3ε-biotin; assay: ELISA, biotinylated CD3ε captured on neutravidin plate, TCE titrated; remark: listed apart in the source
human CD3ε-biotin [15] = biological target: T9, human CD3ε-biotin; assay: BLI (Octet), human CD3-biotin 10 nM on sensor, 50 nM TCE
human TROP2-biotin [16] = biological target: T2, human TROP2-biotin; assay: BLI (Octet), human TROP2-biotin 10 nM on sensor, 50 nM TCE
human CD3ε-biotin [17] = biological target: T9, human CD3ε-biotin; assay: ELISA, biotinylated CD3ε captured on neutravidin plate, TCE titrated; table row head prints EC50 without a unit, unit taken from the axis Log [TCE nM]

Binder: B1
IC50 (TCE-6): 4590 nM
IC50 (TCE-4): > 100000 nM
IC50 (TCE-15): > 100000 nM
IC50 (read off the curve) (TCE-1): ~2000 nM

IC50 (TCE-32): > 100000 nM
IC50 (TCE-30): > 100000 nM
Binder: YLCGPDADETLACY (cysteine pairing not given here; also: biotinylated when captured in ELISA) [Peptide-12]

IC50 (TCE-3): > 100000 nM
IC50 (TCE-6): > 100000 nM
IC50 (TCE-15): > 100000 nM
Binder: QGCGTIADPEPHCW (cysteine pairing not given here; also: biotinylated when captured in ELISA, also called 1363) [Peptide-1]

Binder: B2
IC50 (TCE-3): > 100000 nM
IC50 (TCE-4): > 100000 nM
IC50 (read off the curve) (TCE-1): ~3000 nM

Binder: B3
EC50 (read off the curve) (TROP2 [1]): ~2 nM

Binder: B4
EC50 (read off the curve) (TROP2 [2]): ~0.9 nM
EC50 (read off the curve) (TROP2 [3]): ~2 nM

Binder: B5
EC50 (human CD3ε-biotin [4]): 0.595 nM
EC50 (human TROP2-biotin [5]): 1.38 nM

Binder: B6
EC50 (read off the curve) (CD3ε [6]): ~0.6 nM
EC50 (read off the curve) (TROP2 [7]): ~0.7 nM

Binder: B7
EC50 (human CD3ε-biotin [8]): 0.761 nM
EC50 (Cyno CD3): 0.671 nM
EC50 (human TROP2-biotin [9]): 1.02 nM

Binder: B8
EC50 (human CD3ε-biotin [10]): 0.6 nM
CD3 t1/2 (human CD3ε-biotin [11]): 39 s

Binder: B9
EC50 (read off the curve) (CD3ε [12]): ~0.6 nM
EC50 (read off the curve) (TROP2 [3]): ~2 nM

Binder: B10
EC50 (read off the curve) (TROP2 [1]): ~0.7 nM
EC50 (read off the curve) (CD3ε [13]): ~0.6 nM
EC50 (human TROP2-biotin [5]): 0.893 nM

Binder: B11
EC50 (read off the curve) (TROP2 [7]): ~0.7 nM

Binder: B12
EC50 (human CD3ε-biotin [4]): 0.376 nM
EC50 (human CD3ε-biotin [8]): 0.382 nM
EC50 (human CD3ε-biotin [14]): 0.356 nM
EC50 (Cyno CD3): 0.354 nM

Binder: B13
Kd (human CD3ε-biotin [15]): 0.467 nM
Kd (human TROP2-biotin [16]): 1.22 nM

Binder: B14
EC50 (human CD3ε-biotin [4]): 1.09 nM

Binder: B15
EC50 (human CD3ε-biotin [17]): 0.938 nM
EC50 (human CD3ε-biotin [8]): 0.531 nM
EC50 (Cyno CD3): 0.482 nM
